From patent US20260008830A1 (FUNDACI CENTRE DE REGULACI GEN MICA, published 2026)
Where a chain is given by its changes, count along the chain named. Names may count otherwise.

T1: IL-10 receptors R1 and R2 on HEK-Blue IL-10 reporter cells (UniProt Q13651 22-578; Q08334 20-325, limits assumed)
T1 sequence (looked up) 1: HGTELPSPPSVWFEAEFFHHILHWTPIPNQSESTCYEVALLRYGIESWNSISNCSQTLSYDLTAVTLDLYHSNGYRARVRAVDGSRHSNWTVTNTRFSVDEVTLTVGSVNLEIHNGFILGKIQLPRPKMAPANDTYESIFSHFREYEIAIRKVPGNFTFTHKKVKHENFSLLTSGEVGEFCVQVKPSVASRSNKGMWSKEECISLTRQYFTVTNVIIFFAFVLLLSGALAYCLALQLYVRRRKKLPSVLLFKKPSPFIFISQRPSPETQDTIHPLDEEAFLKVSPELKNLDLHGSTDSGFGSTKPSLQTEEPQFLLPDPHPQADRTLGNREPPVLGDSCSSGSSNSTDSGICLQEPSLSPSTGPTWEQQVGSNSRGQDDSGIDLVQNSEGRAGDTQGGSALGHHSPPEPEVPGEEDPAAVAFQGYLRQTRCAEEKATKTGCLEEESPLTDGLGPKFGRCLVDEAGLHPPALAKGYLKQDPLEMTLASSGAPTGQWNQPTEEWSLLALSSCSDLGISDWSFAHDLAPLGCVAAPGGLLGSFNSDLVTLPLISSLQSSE
T1 sequence (looked up) 2: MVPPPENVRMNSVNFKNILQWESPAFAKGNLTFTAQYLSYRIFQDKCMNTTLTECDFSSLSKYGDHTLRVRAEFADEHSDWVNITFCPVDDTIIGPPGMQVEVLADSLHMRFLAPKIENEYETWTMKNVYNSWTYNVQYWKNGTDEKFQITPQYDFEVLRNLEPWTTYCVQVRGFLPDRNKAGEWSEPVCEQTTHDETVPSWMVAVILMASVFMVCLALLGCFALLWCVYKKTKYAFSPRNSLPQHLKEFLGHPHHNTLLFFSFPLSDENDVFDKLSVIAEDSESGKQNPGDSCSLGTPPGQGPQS

T2: IL-22 receptors R1 and R2 on HEK-Blue IL-22 reporter cells (UniProt Q8N6P7 16-574; Q08334 20-325, limits assumed)
T2 sequence (looked up) 1: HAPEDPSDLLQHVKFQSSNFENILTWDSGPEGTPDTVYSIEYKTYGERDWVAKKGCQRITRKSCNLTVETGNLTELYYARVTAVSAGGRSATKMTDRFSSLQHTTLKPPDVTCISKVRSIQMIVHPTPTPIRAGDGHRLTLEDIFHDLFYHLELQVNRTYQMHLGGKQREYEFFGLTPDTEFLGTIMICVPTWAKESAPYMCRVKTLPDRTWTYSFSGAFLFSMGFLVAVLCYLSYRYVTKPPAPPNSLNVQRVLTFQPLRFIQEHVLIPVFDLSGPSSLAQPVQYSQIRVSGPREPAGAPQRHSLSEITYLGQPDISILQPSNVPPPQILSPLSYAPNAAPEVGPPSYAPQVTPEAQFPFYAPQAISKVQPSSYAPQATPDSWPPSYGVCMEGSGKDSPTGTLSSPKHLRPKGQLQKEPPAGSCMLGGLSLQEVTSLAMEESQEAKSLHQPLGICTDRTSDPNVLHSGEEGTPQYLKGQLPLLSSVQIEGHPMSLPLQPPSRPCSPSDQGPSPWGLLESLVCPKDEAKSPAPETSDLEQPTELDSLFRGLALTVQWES
T2 sequence (looked up) 2: T1 sequence (looked up) 2

B1: MutM (engineered monomeric IL-10 with an inserted polyGly loop between Asn116 and Lys117) (ligand)
chain: MSPGQGTQSENSCTHFPGNLPNMLRDLRDAFSRVKTFFQMKDQLDNLLLKESLLEDFKGYLGCQALSEMIQFYLEEVMPQAENQDPDIKAHVNSLGENLKTLRLRLRRCHRFLPCENGGGSGGKSKAVEQVKNAFNKLQEKGIYKAMSEFDIFINYIEAYMTMKIRN
B2: MutSC2 (MutSC1 with the Mut3 point mutations) (ligand)
chain: MTQSENSCTHFPGILPNMLRDLREAFKRVKTFFQMKDQLDSLLLKESLLEDFKGYLGCQALSEMIQFYLEEVMPQAENQDPDIKAHVISLGENLNTLRLRLRRCHRFLPCENKSKAVEQVKNAFNKLQEKGIYKAMSEFDIFINYIEAYMMMNNGGLDYLPNMLRDLREAFKRVKTFFQMKDQLDSLLLKESLLEDFKGYLGCQALSEMIQFYLEEVMPQAENQDPDIKAHVISLGENLNTLRLRLRRNHRFLPCENKSKAVEQVKNAFNKLQEKGIYKAMSEFDIFINYIEAYMMMKIRN
B3: Mut3 (IL-10 D28E, S31K, N45S, T155M, N18I, N92I, K99N) (ligand)
chain: MSPGQGTQSENSCTHFPGILPNMLRDLREAFKRVKTFFQMKDQLDSLLLKESLLEDFKGYLGCQALSEMIQFYLEEVMPQAENQDPDIKAHVISLGENLNTLRLRLRRCHRFLPCENKSKAVEQVKNAFNKLQEKGIYKAMSEFDIFINYIEAYMMMKIRN
B4: Mut2 (IL-10 D28E, S31K, N45S, T155M) (ligand)
chain: B3 chain with I19N, I93N, N100K
B5: Mut1 (IL-10 D28E, S31R, N45S, T155M) (ligand)
chain: B3 chain with I19N, K32R, I93N, N100K
B6: MutSC1 (foldikine_10, single chain dimeric IL-10) (ligand)
chain: MTQSENSCTHFPGNLPNMLRDLRDAFSRVKTFFQMKDQLDNLLLKESLLEDFKGYLGCQALSEMIQFYLEEVMPQAENQDPDIKAHVNSLGENLKTLRLRLRRCHRFLPCENKSKAVEQVKNAFNKLQEKGIYKAMSEFDIFINYIEAYMTMNNGGLDYLPNMLRDLRDAFSRVKTFFQMKDQLDNLLLKESLLEDFKGYLGCQALSEMIQFYLEEVMPQAENQDPDIKAHVNSLGENLKTLRLRLRRNHRFLPCENKSKAVEQVKNAFNKLQEKGIYKAMSEFDIFINYIEAYMTMKIRN
B7: ORK2-008 (foldikine-2, two 8 aa InterLinkers GPPPPPPG) (ligand)
chain: LRPRDLISNINVIVLELKGSETTFMCEYADETATIVEFLNRWITFCQSIISTLTGPPPPPPGTKKTQLQLEHLLLDLQMILNGINNYKNPKLTRMLTFKFYMPKKATELKHLQCLEEELKPLEEVLNLAQSKNFHLRPRDLISNINVIVLELKGSETTFMCEYADETATIVEFLNRWITFCQSIISTLTGPPPPPPGTKKTQLQLEHLLLDLQMILNGINNYKNPKLTRMLTFKFYMPKKATELKHLQCLEEELKPLEEVLNLAQS
B8: ORK2-007 (foldikine-2, two 7 aa InterLinkers GPPPPPG) (ligand)
chain: LRPRDLISNINVIVLELKGSETTFMCEYADETATIVEFLNRWITFCQSIISTLTGPPPPPGTKKTQLQLEHLLLDLQMILNGINNYKNPKLTRMLTFKFYMPKKATELKHLQCLEEELKPLEEVLNLAQSKNFHLRPRDLISNINVIVLELKGSETTFMCEYADETATIVEFLNRWITFCQSIISTLTGPPPPPGTKKTQLQLEHLLLDLQMILNGINNYKNPKLTRMLTFKFYMPKKATELKHLQCLEEELKPLEEVLNLAQS
B9: ORK2-010 (foldikine-2, two 7 aa InterLinkers GGGSGGG) (ligand)
chain: B8 chain with P56G, P57G, P58S, P59G, P60G, P190G, P191G, P192S, P193G, P194G
B10: ORK2-009 (foldikine-2, two 6 aa InterLinkers GGGSGG) (ligand)
chain: LRPRDLISNINVIVLELKGSETTFMCEYADETATIVEFLNRWITFCQSIISTLTGGGSGGTKKTQLQLEHLLLDLQMILNGINNYKNPKLTRMLTFKFYMPKKATELKHLQCLEEELKPLEEVLNLAQSKNFHLRPRDLISNINVIVLELKGSETTFMCEYADETATIVEFLNRWITFCQSIISTLTGGGSGGTKKTQLQLEHLLLDLQMILNGINNYKNPKLTRMLTFKFYMPKKATELKHLQCLEEELKPLEEVLNLAQS
B11: ORK2-011 (foldikine-2, two 8 aa InterLinkers GGGSGGGG) (ligand)
chain: LRPRDLISNINVIVLELKGSETTFMCEYADETATIVEFLNRWITFCQSIISTLTGGGSGGGGTKKTQLQLEHLLLDLQMILNGINNYKNPKLTRMLTFKFYMPKKATELKHLQCLEEELKPLEEVLNLAQSKNFHLRPRDLISNINVIVLELKGSETTFMCEYADETATIVEFLNRWITFCQSIISTLTGGGSGGGGTKKTQLQLEHLLLDLQMILNGINNYKNPKLTRMLTFKFYMPKKATELKHLQCLEEELKPLEEVLNLAQS
B12: 3dlq. Pdb sequence-Hydrophobic core stabilised protein (IL-22hydC) (ligand)
chain: ARLDKSNFQQPYITNRMFMLAKEMSLADNNTDVRLIGEKLFHGVSMSERCYLMKQILNFMLEEVLFPQSDRFQPYMQEVVPFLARLSNRLSTCHIEGDDLHIQRNVQKLKDTVKKLGELGEIKAIGELDLLFMSLRNACI
B13: mutantE_IL22 (A132Y, D43E, S45R, E77Y, T70I, K61W, S64M) (ligand)
chain: APISSHCREDRSNFQQPYITNRTFMLAWEAMLADNNIDVRLIGYKLFHGVSMSERCYLMKQVLNFTLEEVLFPQSDRFQPYMQEVVPFLYRLSNRLSTCHIEGDDLHIQRNVQKLKDTVKKLGESGEIKAIGELDLLFMSLRNACI
B14: mutantD_IL22 (K61W, S64M) (ligand)
chain: B13 chain with E9L, R11K, I37T, Y44E, Y90A
B15: foldikine-22_1 (SCIL22_1) (ligand)
chain: GCRLDKSNFQQPYITNRTFMLAKEASLADNNTDVRLIGEKLFHGVSMSERCYLMKQVLNFTLEEVLFPQSDRFQPYMQEVVPFLARLSNRLSTCMPGGSKTHIQRNVQKLKDTVKKLGESGEIKAIGELDLLFMSLRNACIANGTLDKSNFQQPYITNRTFMLAKEASLADNNTDVRLIGEKLFHGVSMSERCYLMKQVLNFTLEEVLFPQSDRFQPYMQEVVPFLARLSNRLSRLELLPHIQRNVQKLKDTVKKLGESGEIKAIGELDLLFMSLRNACI
B16: foldikine-22_3 (SCIL22_3) (ligand)
chain: GVRLDKSNFQQPYITNRTFMLAKEASLADNNTDVRLIGEKLFHGVSMSERCYLMKQVLNFTLEEVLFPQSDRFQPYMQEVVPFLARLSNRLKKLMASSDHIQRNVQKLKDTVKKLGESGEIKAIGELDLLFMSLRNACIANGTLDKSNFQQPYITNRTFMLAKEASLADNNTDVRLIGEKLFHGVSMSERCYLMKQVLNFTLEEVLFPQSDRFQPYMQEVVPFLARLSNRLSRLELLPHIQRNVQKLKDTVKKLGESGEIKAIGELDLLFMSLRNACI

Molecular target: T1, IL-10 receptors R1 and R2 on HEK-Blue …
Experiment: cell-based or functional assay

Apparent Kd (M) average (HEK-Blue IL-10 SEAP reporter, absorbance 630 nm, saturation binding fit) | Fold change-apparentKD (against IL-10 ORF) | Binder
2.56e-10 M | 0.773 fold | B1
1.2e-11 M | 16.5 fold | B2
2.61e-11 M | 7.59 fold | B3
6.45e-11 M | 3.07 fold | B4
1.45e-10 M | 1.37 fold | B5
1.9e-11 M | 10.4 fold | B6

Molecular target: IL-2 receptor on IL-2 reporter HEK blue cells (Human IL-2 & IL-15 Reporter Cells, hkb-il2bg)
Sequence (P14784 whole entry, chain 1 of 2): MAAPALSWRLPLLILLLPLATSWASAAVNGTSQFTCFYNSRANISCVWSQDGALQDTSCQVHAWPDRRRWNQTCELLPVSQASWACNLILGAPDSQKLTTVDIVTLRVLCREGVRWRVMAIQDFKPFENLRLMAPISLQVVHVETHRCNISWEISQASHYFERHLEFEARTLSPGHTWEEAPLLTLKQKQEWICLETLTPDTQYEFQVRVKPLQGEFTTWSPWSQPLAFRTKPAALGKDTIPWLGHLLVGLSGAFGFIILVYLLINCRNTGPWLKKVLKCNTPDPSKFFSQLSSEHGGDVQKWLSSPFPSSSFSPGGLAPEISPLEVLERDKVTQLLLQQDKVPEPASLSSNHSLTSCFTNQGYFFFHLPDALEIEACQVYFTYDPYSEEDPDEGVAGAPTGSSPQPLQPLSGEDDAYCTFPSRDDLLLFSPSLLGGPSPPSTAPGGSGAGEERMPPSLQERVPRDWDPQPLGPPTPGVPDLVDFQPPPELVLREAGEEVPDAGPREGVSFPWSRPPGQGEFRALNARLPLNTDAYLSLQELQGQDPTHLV
Sequence (P31785 whole entry, chain 2 of 2, further chain): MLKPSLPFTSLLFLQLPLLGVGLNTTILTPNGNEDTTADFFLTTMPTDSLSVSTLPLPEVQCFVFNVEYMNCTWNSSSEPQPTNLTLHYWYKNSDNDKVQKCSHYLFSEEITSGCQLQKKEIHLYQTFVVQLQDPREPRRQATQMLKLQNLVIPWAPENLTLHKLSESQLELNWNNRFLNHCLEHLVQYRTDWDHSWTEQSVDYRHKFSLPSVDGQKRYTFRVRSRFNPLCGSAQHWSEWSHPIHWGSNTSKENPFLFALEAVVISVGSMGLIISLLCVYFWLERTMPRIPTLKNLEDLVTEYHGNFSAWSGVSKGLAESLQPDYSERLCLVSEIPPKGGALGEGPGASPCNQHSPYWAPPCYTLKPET
Experiment: cell-based or functional assay

EC-50 (IL-2 reporter HEK blue cells, SEAP, absorbance 630 nm) | Binder
251 pM | B7
184 pM | B8
190 pM | B9
211 pM | B10
171 pM | B11

Molecular target: T2, IL-22 receptors R1 and R2 on HEK-Blue …
Experiment: cell-based or functional assay

Kd (apparent, HEK-Blue IL-22 reporter) | gain in affinity against IL-22 WT (HEK-Blue IL-22 reporter) | increase in affinity over wt | apparent Kd in comparison with IL22 WT (HEK-Blue IL-22 reporter) | Binder
0.0054 nM | 2 fold | – | – | B12
– | – | 10 fold | – | B13
– | – | 2 fold | – | B14
– | – | – | ~4 fold | B15
– | – | – | ~4 fold | B16
